Measurements reported in patent US10398755B2, “Clusterin pharmaceuticals and treatment methods using the same” (UNIVERSITY OF SOUTHERN CALIFORNIA, priority 2009, dated 2019).

Legend:
[1] = test system: MMP-9 secreted from HCLE cells; experiment: TNF-alpha induction of MMP-9 secretion from stratified HCLE cells (gelatin zymography); assay type: cell-based, human; details: clusterin 50 ug/ml with TNF-alpha 10 ng/ml, 24 hours
Experimental: (§1) HCLE cells were grown to be confluent in KSFM media and then replenished with DMAM/F12 media to stratify cells for 7 days. To these cells in serum-free DMEM/F12 media, clusterin (50 ug/ml), bovine serum albumin (BSA, 50 ug/ml), and TNF-alpha (10 ng/ml), individually or in combination, were treated for 24 hours. The same volume of supernatants of the cell cultures treated were collected to resolve on SDS/PAGE gel containing gelatin in order to perform gelatin zymography to visualize the presence of MMP-9 secreted from the cells.
as §1, with “cells. […] Therefore, Clusterin inhibits the induction of MMP-9 from human corneal limbal epithelial (HCLE) cells. (See FIG. 10)” for “cells.”

[2] = test system: MMP-9; experiment: MMP inhibition assay (FRET peptide substrate), APMA-activated pro-MMP-9; assay type: biochemical
Experimental: Pro-MMP-9 (A) or pro-MMP-2 (C) was incubated with PBS, CLU (50 μg/ml, or 0.63 μM), SB3-CT (2 μM), or BSA (50 μg/ml), and MMP FRET substrate peptides in the presence and absence of […] APMA at RT for 3 h. RFU, relative fluorescence unit, was obtained by considering the read out in PBS as 100%. Each reaction was performed in triplicate. Standard errors were depicted as a bar in each graph. Differences between values of PBS and CLU or SB-3CT reactions were statistically significant by Student t-test: *P=0.0004, **P=0.0001, +P=0.0003, and ++P=0.01. Gelatin zymography was performed with the samples pooled from each reaction set. Pro-MMPs, processed MMPs (MMP-9 or MMP-2), and C-terminal truncated, processed MMP-9 (MMP-9-ΔC) were indicated by arrows. (B) Dose-dependent inhibition of MMP-9 by CLU or SB-3CT was performed in the same condition. MMPs were mixed with CLD in TSCB buffer, 50 mM Tris-HCI, pH, 7.5, 150 mM NaCl, 5 mM CaCl2, 0.002% Brij35 (or otherwise indicated concentration) 30 min prior to substrate addition, and incubated for 3 h at RT in the presence or absence of 0.02 mM p-aminophenylmercuric acetate (APMA). MMP activity was measured using a 5-FAM/QXL520 fluorescence resonance energy transfer (FRET) peptide as a substrate (EXlEm=490 nm/520 nm) (AnaSpec, Fremont, Calif.), according to the manufacturer's protocol. Relative fluorescence unit (RFU) was obtained by subtracting the values of APMA- or enzyme-omitted reactions from those of test samples, and then considering the fluorescence unit of a PBS (vehicle) sample as 100%. Enzyme reactions were performed in black 96-well plate, containing combinations of 10 ng, 5 ng, 5 ng, 10 ng, 2.5 μg, 2.5 μg of MMP-2, MMP-7, catalytic domain of MMP-9, MMP-9, CCLU, and/or BSA, respectively, in 50 μl reaction volume. As MMP substrates (0.4 μM), 520 MMP FRET substrate […] (SEQ ID NO: 9), was used for MMP-2 and MMP-9, and 520 MMP FRET substrate XIV, […] (SEQ ID NO: 10), used for MMP-7 reactions, both of which were purchased from AnaSpec (Fremont, Calif.). Recombinant proteins such as mouse CLU with C-terminal (His)6 (CLU-His), MMP-2, and MMP-7 were purchased from R&D Systems (Minneapolis, Minn.), MMP-9 was purchase from Ana-Spec, Inc. (San Jose, Calif.). The recombinant catalytic domain of human MMP-9 (residue 112-445) was purchased from ProtEra (Sesto Fiorentino, Italy). A gelatinase-specific synthetic inhibitor, SB-3CT, was obtained from Biomol International (Plymouth Meeting, Pa.). Fluorescence was monitored using a Victor^3TM V multilabel counter (PerkinElmer). For the gelatin digestion, a 50 μl mixture of gelatin (20 μg) and CLU (2 μg) was incubated with or without active MMP-9 (70 ng) for 2 hours at 37° C. The reaction products were run on a 12% denaturing SDS/PAGE gel for Coomasie staining. […] To determine whether MMP-9/CLU interaction affects the cleavage process of the propeptide of MMP-9 and/or interferes with enzymatic activity of the processed active enzyme, we performed an in vitro MMP-9 inhibition assay, by adopting FRET assay using a fluorescence-quenched peptide substrate (FIG. 3A). […] We incubated pro-MMP-9 with PBS, CLU, SB-3CT, or BSA, and a fluorescence peptide substrate in the presence or absence of APMA. […] We monitored the change in fluorescence value during the incubation of the reactions up to 3 h, which reflects the enzymatic activity of APMA-activated MMPs. […] At 3 h post incubation, the activity difference was read and reaction products were resolved by gelatin zymography. […]

B1: CLU: secreted disulfide-linked heterodimeric glycoprotein (70-80 KD); assays used recombinant mouse CLU with C-terminal (His)6 (protein, UniProt Q06890 22-448, looked up)
Clusterin: EQEVSDNELQELSTQGSRYINKEIQNAVQGVKHIKTLIEKTNAERKSLLNSLEEAKKKKEDALEDTRDSEMKLKAFPEVCNETMMALWEECKPCLKHTCMKFYARVCRSGSGLVGQQLEEFLNQSSPFYFWMNGDRIDSLLESDRQQSQVLDAMQDSFARASGIIDTLFQDRFFARELHDPHYFSPIGFPHKRPHFLYPKSRLVRSLMSPSHYGPPSFHNMFQPFFEMIHQAQQAMDVQLHSPAFQFPDVDFLREGEDDRTVCKEIRRNSTGCLKMKGQCEKCQEILSVDCSTNNPAQANLRQELNDSLQVAERLTEQYKELLQSFQSKMLNTSSLLEQLNDQFNWVSQLANLTQGEDKYYLRVSTVTTHSSDSEVPSRVTEVVVKLFDSDPITVVLPEEVSKDNPKFMDTVAEKALQEYRRKSRAE
modifications: C-terminal His6 tag
TNF-induced MMP-9 secretion [1]: inhibited TNF-induced MMP-9 secretion
average inhibition of MMP-9, three independent experiments in triplicate ([2]; 50 μg/ml of CLU, p=0.002): 35%
effect on APMA-induced processing of pro-MMP-9 (zymography) ([2]; APMA-treated reactions): did not affect the enzyme processing by APMA
inhibition of the activity of MMP-9 ([2]; CLU 50 μg/ml (0.63 μM), APMA, RT 3 h, 0.002% Brij 35, compared with PBS and BSA): 28%
dose-dependent inhibition of MMP-9, comparison with SB-3CT ([2]; FIG. 3B): stronger MMP-9 inhibitor than a synthetic gelatinase inhibitor, SB-3CT
MMP-9 inhibition at high detergent concentration ([2]; pro-MMP-9 or APMA-activated MMP-9, 0.04% Brij 35 or NP-40): little MMP-9 inhibition
